{"source": "patent US20240318156A1", "key": {"[1]": {"biological_target": "cation independent mannose 6-phosphate receptor (CI-MPR) (human) (UniProt P11717)", "sequence (P11717 41-2491)": "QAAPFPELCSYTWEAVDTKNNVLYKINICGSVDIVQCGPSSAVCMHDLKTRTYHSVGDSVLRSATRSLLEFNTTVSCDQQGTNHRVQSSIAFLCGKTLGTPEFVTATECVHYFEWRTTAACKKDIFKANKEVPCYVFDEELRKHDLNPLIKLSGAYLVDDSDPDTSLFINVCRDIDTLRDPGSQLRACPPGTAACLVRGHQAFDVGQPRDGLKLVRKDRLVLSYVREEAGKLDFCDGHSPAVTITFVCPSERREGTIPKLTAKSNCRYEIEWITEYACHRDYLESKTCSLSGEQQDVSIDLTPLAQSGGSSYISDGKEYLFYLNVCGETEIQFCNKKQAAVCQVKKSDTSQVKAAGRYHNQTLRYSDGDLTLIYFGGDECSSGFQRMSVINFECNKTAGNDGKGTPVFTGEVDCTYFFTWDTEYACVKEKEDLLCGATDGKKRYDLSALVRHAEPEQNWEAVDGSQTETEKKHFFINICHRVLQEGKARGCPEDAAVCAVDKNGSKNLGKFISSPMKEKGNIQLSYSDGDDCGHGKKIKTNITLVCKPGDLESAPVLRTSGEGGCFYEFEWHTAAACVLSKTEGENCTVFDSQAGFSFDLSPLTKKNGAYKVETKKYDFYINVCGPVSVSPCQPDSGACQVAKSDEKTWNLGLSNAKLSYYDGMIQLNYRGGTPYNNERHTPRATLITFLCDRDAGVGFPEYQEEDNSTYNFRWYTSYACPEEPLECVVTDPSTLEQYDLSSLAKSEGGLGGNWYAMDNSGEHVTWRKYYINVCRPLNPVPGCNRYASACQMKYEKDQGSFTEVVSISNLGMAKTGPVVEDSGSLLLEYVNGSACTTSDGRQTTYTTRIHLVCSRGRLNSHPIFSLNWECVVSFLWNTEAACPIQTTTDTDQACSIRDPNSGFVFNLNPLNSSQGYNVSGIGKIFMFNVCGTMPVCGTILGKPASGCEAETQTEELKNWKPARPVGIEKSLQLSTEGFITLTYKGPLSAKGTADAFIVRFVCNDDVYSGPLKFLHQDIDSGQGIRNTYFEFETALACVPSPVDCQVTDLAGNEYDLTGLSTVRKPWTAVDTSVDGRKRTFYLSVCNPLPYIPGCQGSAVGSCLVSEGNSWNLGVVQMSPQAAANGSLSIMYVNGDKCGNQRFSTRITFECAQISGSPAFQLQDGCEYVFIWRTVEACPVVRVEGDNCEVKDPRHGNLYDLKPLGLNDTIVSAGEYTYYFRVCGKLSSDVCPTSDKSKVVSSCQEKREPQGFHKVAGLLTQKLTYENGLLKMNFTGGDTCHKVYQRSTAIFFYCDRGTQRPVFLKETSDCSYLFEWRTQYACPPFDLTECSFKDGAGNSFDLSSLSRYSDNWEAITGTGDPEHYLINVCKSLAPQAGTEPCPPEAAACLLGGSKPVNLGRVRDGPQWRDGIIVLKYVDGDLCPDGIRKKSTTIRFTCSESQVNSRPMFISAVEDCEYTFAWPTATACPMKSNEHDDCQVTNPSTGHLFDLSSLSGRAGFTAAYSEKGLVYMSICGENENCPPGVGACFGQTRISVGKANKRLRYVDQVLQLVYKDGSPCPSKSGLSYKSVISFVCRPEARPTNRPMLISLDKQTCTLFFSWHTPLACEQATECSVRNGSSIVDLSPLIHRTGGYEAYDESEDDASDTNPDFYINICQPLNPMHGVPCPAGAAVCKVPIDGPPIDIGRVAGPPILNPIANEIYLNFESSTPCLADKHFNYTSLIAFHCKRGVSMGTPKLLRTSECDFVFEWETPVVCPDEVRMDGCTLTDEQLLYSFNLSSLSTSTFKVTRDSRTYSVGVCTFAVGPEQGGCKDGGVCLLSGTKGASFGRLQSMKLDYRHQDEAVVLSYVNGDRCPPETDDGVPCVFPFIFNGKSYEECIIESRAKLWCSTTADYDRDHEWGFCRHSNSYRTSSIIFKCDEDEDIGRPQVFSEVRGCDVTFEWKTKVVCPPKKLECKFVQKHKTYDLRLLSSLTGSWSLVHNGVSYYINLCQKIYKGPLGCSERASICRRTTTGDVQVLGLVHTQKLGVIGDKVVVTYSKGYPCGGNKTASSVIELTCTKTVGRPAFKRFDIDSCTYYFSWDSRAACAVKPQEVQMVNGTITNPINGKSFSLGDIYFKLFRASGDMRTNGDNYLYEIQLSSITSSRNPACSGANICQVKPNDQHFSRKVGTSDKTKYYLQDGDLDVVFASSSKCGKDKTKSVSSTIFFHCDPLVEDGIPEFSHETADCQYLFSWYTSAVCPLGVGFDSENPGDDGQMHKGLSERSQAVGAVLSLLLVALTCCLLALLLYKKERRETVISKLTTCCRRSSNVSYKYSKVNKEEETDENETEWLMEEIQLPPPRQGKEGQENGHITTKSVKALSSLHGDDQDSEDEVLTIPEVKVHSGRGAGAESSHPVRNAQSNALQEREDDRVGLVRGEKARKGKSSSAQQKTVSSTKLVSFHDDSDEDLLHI", "assay": "cell-based or functional assay"}, "[2]": {"biological_target": "T1, Recombinant human GM2 activator protein (GM2AP) containing an N-terminal 6×-histidine tag, P17900", "T1 chain": "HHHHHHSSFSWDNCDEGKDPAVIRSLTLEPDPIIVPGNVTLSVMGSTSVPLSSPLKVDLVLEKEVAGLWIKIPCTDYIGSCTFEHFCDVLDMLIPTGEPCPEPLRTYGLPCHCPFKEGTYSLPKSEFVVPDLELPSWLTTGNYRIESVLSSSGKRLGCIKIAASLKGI"}}}
{"binder": "HexM (Modified α/α homodimer) (protein) TLEKNVLVVSVVTPGCNQLPTLESVENYTLTINDDQCLLLSETVWGALRGLETFSQLVWKSAEGTFFINKTEIEDFPRFPHRGLLLDTSRHYLPLKSILDTLDVMAYNKLNVFHWHLVDDQSFPYESFTFPELMRKGSYSLSHIYTAQDVKEVIEYARLRGIRVLAEFDTPGHTLSWGPGIPGLLTPCYSGSEPSGTFGPVNPSLNNTYEFMSTFFLEVSSVFPDFYLHLGGDEVDFTCWKSNPEIQDFMRKKGFGEDFKQLESFYIQTLLDIVSSYGKGYVVWQEVFDNKVKIQPDTIIQVWREDIPVNYMKELELVTKAGFRALLSAPWYLNRISYGQDWRKFYKVEPLAFEGTPEQKALVIGGEACMWGEYVDATNLVPRLWPRAGAVAERLWSNKLTRDMDDAYDRLSHFRCELVRRGVAAQPLYAGYCNQEFEQT", "values": [{"measurement": "K uptake (nM) MUG activity", "setting": "[1]", "result": 130, "unit": "nM"}, {"measurement": "GM2AP-dependent kinetics of GM2 hydrolysis", "setting": "[2]", "result": "GM2AP binding kinetics to the Hex homodimers was comparable to the wild type heterodimer"}, {"measurement": "Km (Kinetic data of FIG. 2, GM2AP-dependent GM2 degradation)", "setting": "[2]", "result": 19.6, "unit": "µM"}, {"measurement": "Km GM2AP", "setting": "[2]", "result": 19.6, "unit": "µM"}, {"measurement": "Km [GM2AP], µM (GM2AP-dependent GM2 hydrolysis, natural substrate assay)", "setting": "[2]", "result": 19.6, "unit": "µM"}]}
{"binder": "Mod2B (Modified β/β homodimer) (protein) TQVQQLLVSITLQSECDAFPNISSDESYTLLVKEPVAVLKANRVWGALRGLETFSQLVYQDSYGTFTINESTIIDSPRFSHRGILIDTSRHYLPVKIILKTLDAMAFNKFNVLHWHIVDDQSFPYQSITFPELSNKGSYSLSHVYTPNDVRMVIEYARLRGIRVLPEFDTPGHTLSWGKGQKDLLTPCYSGSEPSGTFGPINPTLNTTYSFLTTFFKEISEVFPDQFIHLGGDEVEFKCWESNPKIQDFMRQKGFGTDFKKLESFYIQKVLDIIATINKGSIVWQEVFDDKAKLAPGTIVEVWKDSAYPEELSRVTASGFPVILSAPWYLNRISYGQDWRKYYKVEPLDFGGTQKQKQLFIGGEACLWGEYVDATNLTPRLWPRASAVGERLWSSKDVRDMDDAYDRLTRHRCRMVERGIAAQPLYAGYCNHENM", "values": [{"measurement": "GM2AP-dependent kinetics of GM2 hydrolysis", "setting": "[2]", "result": "GM2AP binding kinetics to the Hex homodimers was comparable to the wild type heterodimer"}, {"measurement": "Km (Kinetic data of FIG. 2, GM2AP-dependent GM2 degradation)", "setting": "[2]", "result": 20.4, "unit": "µM"}, {"measurement": "Km [GM2AP], µM (GM2AP-dependent GM2 hydrolysis, natural substrate assay)", "setting": "[2]", "result": 20.4, "unit": "µM"}]}
{"binder": "HexD3 (Modified α/α homodimer) (protein) ARAPSVSAKPGPALWPLPLSVKMTPNLLHLAPENFYISHSPNSTAGPSCTLLEEAFRRYHGYIFGFYKWHHEPAEFQAKTQVQQLLVSITLQSECDAFPNISSDESYTLLVKEPVAVLKANRVWGALRGLETFSQLVYQDSYGTFTINESTIIDSPRFPHRGLLLDTSRHYLPLKSILDTLDVMAYNKLNVFHWHLVDDQSFPYESFTFPELMRKGSYSLSHIYTAQDVKEVIEYARLRGIRVLAEFDTPGHTLSWGPGIPGLLTPCYSGSEPSGTFGPVNPSLNNTYEFMSTFFLEVSSVFPDFYLHLGGDEVDFTCWKSNPEIQDFMRKKGFGEDFKQLESFYIQTLLDIVSSYGKGYVVWQEVFDNKVKIQPDTIIQVWREDIPVNYMKELELVTKAGFRALLSAPWYLNRISYGQDWRKFYKVEPLAFEGTPEQKALVIGGEACMWGEYVDATNLVPRLWPRAGAVAERLWSNKLTRDMDDAYDRLSHFRCELVRRGVAAQPLYAGYCNQEFEQT", "values": [{"measurement": "K uptake (nM) MUG activity", "setting": "[1]", "result": 5.8, "unit": "nM"}, {"measurement": "Km (Kinetic data of FIG. 2, GM2AP-dependent GM2 degradation)", "setting": "[2]", "result": 13.7, "unit": "µM"}, {"measurement": "Km GM2AP", "setting": "[2]", "result": 13.7, "unit": "µM"}, {"measurement": "Km [GM2AP], µM (GM2AP-dependent GM2 hydrolysis, natural substrate assay)", "setting": "[2]", "result": 13.7, "unit": "µM"}]}
{"binder": "HexA (wild-type; α/β heterodimer) (protein) chain 1: TLEKNVLVVSVVTPGCNQLPTLESVENYTLTINDDQCLLLSETVWGALRGLETFSQLVWKSAEGTFFINKTEIEDFPRFPHRGLLLDTSRHYLPLSSILDTLDVMAYNKLNVFHWHLVDDPSFPYESFTFPELMRKGSYNPVTHIYTAQDVKEVIEYARLRGIRVLAEFDTPGHTLSWGPGIPGLLTPCYSGSEPSGTFGPVNPSLNNTYEFMSTFFLEVSSVFPDFYLHLGGDEVDFTCWKSNPEIQDFMRKKGFGEDFKQLESFYIQTLLDIVSSYGKGYVVWQEVFDNKVKIQPDTIIQVWREDIPVNYMKELELVTKAGFRALLSAPWYLNRISYGPDWKDFYIVEPLAFEGTPEQKALVIGGEACMWGEYVDNTNLVPRLWPRAGAVAERLWSNKLTSDLTFAYERLSHFRCELLRRGVQAQPLNVGFCEQEFEQT chain 2: ARAPSVSAKPGPALWPLPLSVKMTPNLLHLAPENFYISHSPNSTAGPSCTLLEEAFRYHGYIFGFYKWHHEPAEFQAKTQVQQLLVSITLQSECDAFPNISSDESYTLLVKEPVAVLKANRVWGALRGLETFSQLVYQDSYGTFTINESTIIDSPRFSHRGILIDTSRHYLPVKIILKTLDAMAFNKFNVLHWHIVDDQSFPYQSITFPELSNKGSYSLSHVYTPNDVRMVIEYARLRGIRVLPEFDTPGHTLSWGKGQKDLLTPCYSRQNKLDSFGPINPTLNTTYSFLTTFFKEISEVFPDQFIHLGGDEVEFKCWESNPKIQDFMRQKGFGTDFKKLESFYIQKVLDIIATINKGSIVWQEVFDDKAKLAPGTIVEVWKDSAYPEELSRVTASGFPVILSAPWYLDLISYGQDWRKYYKVEPLDFGGTQKQKQLFIGGEACLWGEYVDATNLTPRLWPRASAVGERLWSSKDVRDMDDAYDRLTRHRCRMVERGIAAQPLYAGYCNHENM", "values": [{"measurement": "K uptake (nM) MUG activity", "setting": "[1]", "result": 3.3, "unit": "nM"}, {"measurement": "Km (Kinetic data of FIG. 2, GM2AP-dependent GM2 degradation)", "setting": "[2]", "result": 14.5, "unit": "µM"}, {"measurement": "Km GM2AP", "setting": "[2]", "result": 14.5, "unit": "µM"}, {"measurement": "Km [GM2AP], µM (GM2AP-dependent GM2 hydrolysis, natural substrate assay)", "setting": "[2]", "result": 14.5, "unit": "µM"}]}
